# According to patent US20070269861A1:
# Assays:
# [1] = biological target: Crotalus durissus terrificus (C.d.t.) venom; assay: ELISA, venom-coated wells; dilution 1:5
# [2] = biological target: Crotalus durissus terrificus (C.d.t.) venom; assay: ELISA, venom-coated wells (5 µg/ml); dilution 1:125
# [3] = biological target: Crotalus durissus terrificus (C.d.t.) venom; assay: ELISA, venom-coated wells; dilution 1:312,500
# [4] = biological target: Crotalus durissus terrificus (C.d.t.) venom; assay: ELISA, venom-coated wells (5 µg/ml); dilution 1:25
# [5] = biological target: Crotalus durissus terrificus (C.d.t.) venom; assay: ELISA, venom-coated wells (5 µg/ml); undiluted
# [6] = biological target: Crotalus durissus terrificus (C.d.t.) venom; assay: ELISA, venom-coated wells (5 µg/ml); dilution 1:5
# [7] = biological target: Crotalus durissus terrificus (C.d.t.) venom; assay: ELISA, venom-coated wells (5 µg/ml); dilution 1:3125
# [8] = biological target: Crotalus durissus terrificus (C.d.t.) venom; assay: ELISA, venom-coated wells (5 µg/ml); dilution 1:625
# [9] = biological target: Crotalus durissus terrificus (C.d.t.) venom; assay: ELISA, venom-coated wells; dilution 1:125
# [10] = biological target: Crotalus durissus terrificus (C.d.t.) venom; assay: ELISA, venom-coated wells; dilution 1:625
# [11] = biological target: Crotalus durissus terrificus (C.d.t.) venom; assay: ELISA, venom-coated wells; dilution 1:3125
# [12] = biological target: Crotalus durissus terrificus (C.d.t.) venom; assay: ELISA, venom-coated wells; dilution 1:62,500
# [13] = biological target: Crotalus durissus terrificus (C.d.t.) venom; assay: ELISA, venom-coated wells; dilution 1:25
substance,measurement,setting,value
preimmune IgY (PEG preparation from eggs of unimmunized hens) (antibody),absorbance 412 nm,[1],< 0 absorbance
same,absorbance 412 nm,[2],0.003 absorbance
same,absorbance 412 nm,[3],0.01 absorbance
same,absorbance 412 nm,[4],0 absorbance
same,absorbance 412 nm,[5],0.003 absorbance
same,absorbance 412 nm,[6],< 0 absorbance
same,absorbance 412 nm,[7],0.002 absorbance
same,absorbance 412 nm,[8],0 absorbance
same,absorbance 412 nm,[9],< 0 absorbance
same,absorbance 412 nm,[10],< 0 absorbance
same,absorbance 412 nm,[11],< 0 absorbance
same,absorbance 412 nm,[12],0.001 absorbance
same,absorbance 412 nm,[13],0.016 absorbance
